This passage reports response results from paper PMC10183829 (2023).

B1: mCh-HsC53 [human] / GST-ATG8A [Arabidopsis thaliana] (parent complex)
chain 1: MEDHQHVPIDIQTSKLLDWLVDRRHCSLKWQSLVLTIREKINAAIQDMPESEEIAQLLSGSYIHYFHCLRILDLLKGTEASTKNIFGRYSSQRMKDWQEIIALYEKDNTYLVELSSLLVRNVNYEIPSLKKQIAKCQQLQQEYSRKEEECQAGAAEMREQFYHSCKQYGITGENVRGELLALVKDLPSQLAEIGAAAQQSLGEAIDVYQASVGFVCESPTEQVLPMLRFVQKRGNSTVYEWRTGTEPSVVERPHLEELPEQVAEDAIDWGDFGVEAVSEGTDSGISAEAAGIDWGIFPESDSKDPGGDGIDWGDDAVALQITVLEAGTQAPEGVARGPDALTLLEYTETRNQFLDELMELEIFLAQRAVELSEEADVLSVSQFQLAPAILQGQTKEKMVTMVSVLEDLIGKLTSLQLQHLFMILASPRYVDRVTEFLQQKLKQSQLLALKKELMVQKQQEALEEQAALEPKLDLLLEKTKELQKLIEADISKRYSGRPVNLMGTSL
chain 2: MAKSSFKISNPLEARMSESSRIREKYPDRIPVIVEKAGQSDVPDIDKKKYLVPADLTVGQFVYVVRKRIKLGAEKAIFVFVKNTLPPTAALMSAIYEEHKDEDGFLYMTYSGENTFG

The variants in this assay derive from B1. Nature of the assay: microscopy-based protein-protein interaction assay (on-bead binding, confocal); 1 μM C53 protein; glutathione-sepharose beads with GST-ATG8A; read off a plot.
With chain 1 MEDHQHVPIDIQTSKLLDWLVDRRHCSLKWQSLVLTIREKINAAIQDMPESEEIAQLLSGSYIHYFHCLRILDLLKGTEASTKNIFGRYSSQRMKDWQEIIALYEKDNTYLVELSSLLVRNVNYEIPSLKKQIAKCQQLQQEYSRKEEECQAGAAEMREQFYHSCKQYGITGENVRGELLALVKDLPSQLAEIGAAAQQSLGEAIDVYQASVGFVCESPTEQVLPMLRFVQKRGNSTVYEWRTGTEPSVVERPHLEELPEQVAEDAIDAGDFGVEAVSEGTDSGISAEAAGIDAGIFPESDSKDPGGDGIDAGDDAVALQITVLEAGTQAPEGVARGPDALTLLEYTETRNQFLDELMELEIFLAQRAVELSEEADVLSVSQFQLAPAILQGQTKEKMVTMVSVLEDLIGKLTSLQLQHLFMILASPRYVDRVTEFLQQKLKQSQLLALKKELMVQKQQEALEEQAALEPKLDLLLEKTKELQKLIEADISKRYSGRPVNLMGTSL [chain 1 W269A, chain 1 W294A, chain 1 W312A], the response is around 0.25 normalized fluorescence.
